The values below are quoted from earlier work in US6537965B1, “Amino-terminal modified parathyroid hormone (PTH) analogs” (The General Hospital Corporation, priority 1998, dated 2003).

For series [1], the target named is T1, human PTHRs (Homo sapiens, UniProt Q03431).
T1 sequence (Q03431 27-593): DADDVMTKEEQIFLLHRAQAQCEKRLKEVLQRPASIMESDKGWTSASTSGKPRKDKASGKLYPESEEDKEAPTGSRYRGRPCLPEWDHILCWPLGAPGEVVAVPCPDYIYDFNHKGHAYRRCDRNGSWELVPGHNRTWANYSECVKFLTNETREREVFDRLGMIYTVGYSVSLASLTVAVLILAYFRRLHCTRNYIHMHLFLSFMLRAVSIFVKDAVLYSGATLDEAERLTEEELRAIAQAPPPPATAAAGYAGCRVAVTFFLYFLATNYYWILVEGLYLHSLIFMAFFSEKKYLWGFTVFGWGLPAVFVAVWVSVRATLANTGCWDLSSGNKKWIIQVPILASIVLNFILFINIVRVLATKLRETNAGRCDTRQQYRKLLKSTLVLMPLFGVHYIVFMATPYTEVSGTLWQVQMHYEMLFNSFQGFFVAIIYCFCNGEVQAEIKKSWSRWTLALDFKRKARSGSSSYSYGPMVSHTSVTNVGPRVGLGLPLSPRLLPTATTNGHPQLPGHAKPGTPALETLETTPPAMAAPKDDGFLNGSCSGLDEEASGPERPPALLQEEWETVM
Further details: host or cells: LLC-PK1, COS-7 or HEK 293 cells. Particulars: human PTHRs in LLC-PK1, COS-7 or HEK 293 cells; cited from earlier work.

The target in series [2] is T1, human PTHRs. Further details: host or cells: LLC-PK1, COS-7 or HEK 293 cells. Particulars: human PTHRs in LLC-PK1, COS-7 or HEK 293 cells; cited from earlier work. The source holds these as a separate data set.

Turning to “hPTH-(1-31): C-truncated human PTH peptide, residues 1-31”, in the series with human PTHRs [1], the “potency in activating AC compared with hPTH-(1-34)” value was “as potent as hPTH-(1-34)”. Moreover, in the series with human PTHRs [2], the “potency in activating PLC compared with hPTH-(1-34)” value is “as potent as hPTH-(1-34)”.
